Laboratory results taken from patent publication US20260098102A1 (NATIONAL UNIVERSITY CORPORATION KOBE UNIVERSITY, published 2026).

Columns and labels:
human SIRPA_V1 protein [1] = target: T1, human SIRPA_V1 protein (human, UniProt P78324 31-504); assay: cell-based ELISA on 293α cells expressing FLAG-tagged SIRPA_V1; Abs 490 normalized to FLAG tag
T1 construct: Expressed on 293α cells from pcDNA3.2 V5-DEST or pFLAG V5-DEST (FLAG-tagged) vectors; also called human SIRPA Variant 1; hSIRPA V1
Procedure: (§1) The 293α cells [described in Example 1)-6] were prepared in a 10% FBS-containing DMEM medium to 5×10⁵ cells/mL. pFLAG V5-DEST-SIRPA_V1, pFLAG V5-DEST-SIRPA_V2, or pFLAG V5-DEST was introduced into the cells using Lipofectamine LTX (Invitrogen), followed by addition of 100 μL per well to a 96-well plate (Corning Incorporated), and cells were cultured overnight in the 10% FBS-containing DMEM medium at 37° C. under a 5% CO₂ condition. The obtained introduced cells were used for cell-based ELISA in a state that they adhered to each other. After the culture supernatant was removed, 50 μL per well of the cD13 (IgG2 and IgG4pf), cF44 (IgG1, IgG2, IgG4p, and IgG4pf), and cF63 (IgG2 and IgG4pf) antibodies prepared in Examples 3 and 4 were added to each of pFLAG V5-DEST-SIRPA_V1, pFLAG V5-DEST-SIRPA_V2, or pFLAG V5-DEST-introduced cells at final concentrations of 0 to 10,000 ng/mL, and the mixture was allowed to stand at 4° C. for one hour. Further, 50 μL per well of anti-FLAG M2 antibody (SIGMA) diluted with 5% FBS-containing PBS to a final concentration of 10,000 ng/mL was added to a well for detecting expression of each SIRPA construct, and the mixture was allowed to stand at 4° C. for one hour. The cells in the well were washed once with 5% FBS-containing PBS, followed by addition of Peroxidase AffiniPure F(ab′)₂ Fragment Goat Anti-Human IgG, Fcγ Fragment Specific (Jackson ImmunoResearch) diluted 1000-fold with 5% FBS-containing PBS, and the mixture was allowed to stand at 4° C. for one hour. The cells in the well were washed five times with 5% FBS-containing PBS, followed by addition of 100 μL per well of an OPD coloration solution [o-phenylenediamine dihydrochloride (Wako Pure Chemical Industries, Ltd.) and H₂O₂ were dissolved in an OPD solution (0.05 M trisodium citrate, 0.1 M disodium hydrogen phosphate dodecahydrate, pH 4.5) at 0.4 mg/mL and 0.6% (v/v), respectively]. A coloration reaction was performed with stirring occasionally, 100 μL per well of 1 M HCl was added to terminate the coloration reaction, and then absorbance at 490 nm was measured with a plate reader ARVO (PerkinElmer Inc.). Binding of the human chimeric anti-human SIRPA antibodies to each construct was standardized by expression of the FLAG tag.

human SIRPA_V2 protein = target: T2, human SIRPA_V2 protein (human, UniProt P78324 31-504); assay: cell-based ELISA on 293α cells expressing FLAG-tagged SIRPA_V2; Abs 490 normalized to FLAG tag
T2 construct: Expressed on 293α cells from pcDNA3.2 V5-DEST or pFLAG V5-DEST (FLAG-tagged) vectors; also called human SIRPA Variant 2; ECD variant (full-length, amino acids 1 to 504)
Procedure: as §1

human SIRPA_V1 protein [2] = target: T1, human SIRPA_V1 protein; assay: blocking cell-based ELISA: peroxidase-labeled CD47-Fc (10,000 ng/mL) on 293α cells expressing SIRPA_V1; y axis = CD47-Fc signal in % of no antibody [i]
Procedure: After the culture supernatant of the human SIRPA and monkey SIRPA expression vector-introduced 293α cells prepared in Examples 5)-1 and 5)-2, respectively, was removed, 50 μL per well of cD13 (IgG2 and IgG4pf), cF44 (four different constant regions IgG1, IgG2, IgG4p, and IgG4pf), and cF63 (IgG2 and IgG4pf) diluted with 5% FBS-containing PBS to final concentrations of 0 to 10,000 ng/mL were added to each of pcDNA3.2 V5-DEST-SIRPA_V1, pcDNA3.2 V5-DEST-monkey SIRPA, and pcDNA3.2 V5-DEST-introduced 293α cells, immediately followed by addition of 50 μL per well of peroxidase-labeled CD47-Fc prepared in 5% FBS-containing PBS at a final concentration of 10,000 ng/ml, and the mixture was allowed to stand at 4° C. for one hour. Thereafter, the SIRPA-CD47 binding inhibitory activity was evaluated in the same manner as in 1)-6-3.

T1 sequence (P78324 31-504 limits assumed): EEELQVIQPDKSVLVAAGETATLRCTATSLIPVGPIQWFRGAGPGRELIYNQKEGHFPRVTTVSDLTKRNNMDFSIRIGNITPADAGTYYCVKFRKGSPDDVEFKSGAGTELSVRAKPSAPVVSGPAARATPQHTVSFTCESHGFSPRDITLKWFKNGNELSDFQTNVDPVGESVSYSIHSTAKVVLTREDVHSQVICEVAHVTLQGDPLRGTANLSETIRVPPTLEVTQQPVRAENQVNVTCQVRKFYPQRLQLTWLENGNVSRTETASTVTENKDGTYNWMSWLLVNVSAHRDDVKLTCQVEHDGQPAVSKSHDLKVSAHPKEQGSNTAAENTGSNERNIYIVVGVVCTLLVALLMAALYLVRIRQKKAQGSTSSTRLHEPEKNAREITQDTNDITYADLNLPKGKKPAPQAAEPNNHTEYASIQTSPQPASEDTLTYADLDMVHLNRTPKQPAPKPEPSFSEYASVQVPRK
T2 sequence (P78324 other isoform, or with tags, fused parts or gaps limits assumed): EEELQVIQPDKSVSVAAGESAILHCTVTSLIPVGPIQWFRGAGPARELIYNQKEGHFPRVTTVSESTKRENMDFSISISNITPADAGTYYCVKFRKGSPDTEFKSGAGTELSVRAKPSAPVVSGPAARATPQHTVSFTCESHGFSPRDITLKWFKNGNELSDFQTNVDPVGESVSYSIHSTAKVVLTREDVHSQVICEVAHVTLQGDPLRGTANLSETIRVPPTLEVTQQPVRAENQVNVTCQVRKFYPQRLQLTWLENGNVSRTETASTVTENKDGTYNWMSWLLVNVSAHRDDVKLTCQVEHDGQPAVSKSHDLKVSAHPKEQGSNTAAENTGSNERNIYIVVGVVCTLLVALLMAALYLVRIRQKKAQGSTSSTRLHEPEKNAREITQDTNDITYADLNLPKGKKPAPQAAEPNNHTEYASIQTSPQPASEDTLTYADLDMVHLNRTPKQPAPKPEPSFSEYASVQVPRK

B1: human chimeric anti-SIRPA antibody cD13 (antibody, human IgG4 S228P, kappa, F234A L235A, V domains shown)
VH: EVQLVESGGGLVQPGRSLKLSCLASGFTFSDYGMIWVRQAPGKGLEWVASISSSSSYIYYADTVKGRFTISRENAKNTLFLHMTSLRSEDTALYYCARRYYGFNYPFDYWGQGVMVTVSS
VL: DTVLTQSPALAVSLGQRVTISCGASKSVRTYMHWYQQKSGQQPKLLIYSASNLEAGVPSRFSGSGSGTDFTLTIDPVEADDIANYYCQQSNEPPYTFGAGTKLELKR
notes: Human IgG4proFALA heavy chain, human kappa light chain; also called cD13 (IgG4pf); human chimeric antibody D13
- EC50 (read off the curve) (human SIRPA_V1 protein [1]): ~0.08 mg/L
- EC50 (read off the curve) (human SIRPA_V2 protein): ~0.05 mg/L
- IC50 (read off the curve) (human SIRPA_V1 protein [2]): ~0.1 mg/L
